For the experiment, the target named is human CSF tau (human) (UniProt P10636). Description: IP of tau from human CSF on antibody beads; recovery assessed by N-terminus tau ELISA (HJ8.5 capture, HJ8.7-biotin detection); value is the average over Tau12, HJ8.5 and HJ8.7.
UniProt P10636, sequence (P10636 2-758 limits assumed): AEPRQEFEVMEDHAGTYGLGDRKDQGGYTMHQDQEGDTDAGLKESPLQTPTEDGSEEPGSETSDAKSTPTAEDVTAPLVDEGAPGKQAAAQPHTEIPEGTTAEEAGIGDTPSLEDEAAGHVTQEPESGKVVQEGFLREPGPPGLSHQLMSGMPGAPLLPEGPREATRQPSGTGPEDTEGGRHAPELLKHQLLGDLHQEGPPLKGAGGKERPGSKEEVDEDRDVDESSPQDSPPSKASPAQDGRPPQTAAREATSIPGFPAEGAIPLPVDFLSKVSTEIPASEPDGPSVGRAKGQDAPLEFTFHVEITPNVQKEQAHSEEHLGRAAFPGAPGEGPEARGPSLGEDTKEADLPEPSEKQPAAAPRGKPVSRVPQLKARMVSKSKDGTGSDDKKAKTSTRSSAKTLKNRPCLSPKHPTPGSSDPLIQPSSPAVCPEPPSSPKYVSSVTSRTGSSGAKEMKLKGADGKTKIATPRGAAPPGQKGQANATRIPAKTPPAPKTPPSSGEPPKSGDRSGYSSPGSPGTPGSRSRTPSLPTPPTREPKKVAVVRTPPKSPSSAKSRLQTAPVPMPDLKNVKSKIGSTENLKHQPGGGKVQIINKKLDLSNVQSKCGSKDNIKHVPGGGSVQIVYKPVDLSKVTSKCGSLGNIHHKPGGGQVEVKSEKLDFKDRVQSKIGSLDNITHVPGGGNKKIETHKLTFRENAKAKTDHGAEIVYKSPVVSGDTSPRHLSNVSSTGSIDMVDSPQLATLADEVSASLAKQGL

Turning to HJ8.7 (antibody), the immunoprecipitation efficiency is 99.3%.
As for Tau12 (antibody), the immunoprecipitation efficiency worked out at 99.3%.

Source of the values: patent publication US20210096139A1.
